Measurements: US7605150 (Stanford University, dated 2009)
*1 amine or outer side, *2 acyl side, *3 side chain or, on linkers, in order; H or OH if unused. Where no end group is shown, it is not given here. [ ]: non-standard residue; d: D form. Aci = acivicin, (2S)-amino[(5S)-3-chloro-4,5-dihydroisoxazol-5-yl]acetic acid, O=C([C@@H](N[*:1])[C@@H]1CC(Cl)=NO1)[*:2]; DON = [N-]=[N+]=CC(=O)CC[C@H](N)C(=O)O

Assays:
[1] = target: T1, Ac-PQPQLPF-NH2
T1 chain: PQPQLPF

[2] = target: T2, PQPQLPY
T2 chain: PQPQLPY

[3] = target: T3, recombinant human tissue transglutaminase (human, UniProt P21980 1-687, limits assumed); experiment: time-dependent inactivation of tTG (9 uM) by 0-600 uM inhibitor; residual activity by glutamate dehydrogenase-coupled assay at 340 nm; double-reciprocal plot
T3 construct: also called tTGase; tTG
T3 sequence (looked up): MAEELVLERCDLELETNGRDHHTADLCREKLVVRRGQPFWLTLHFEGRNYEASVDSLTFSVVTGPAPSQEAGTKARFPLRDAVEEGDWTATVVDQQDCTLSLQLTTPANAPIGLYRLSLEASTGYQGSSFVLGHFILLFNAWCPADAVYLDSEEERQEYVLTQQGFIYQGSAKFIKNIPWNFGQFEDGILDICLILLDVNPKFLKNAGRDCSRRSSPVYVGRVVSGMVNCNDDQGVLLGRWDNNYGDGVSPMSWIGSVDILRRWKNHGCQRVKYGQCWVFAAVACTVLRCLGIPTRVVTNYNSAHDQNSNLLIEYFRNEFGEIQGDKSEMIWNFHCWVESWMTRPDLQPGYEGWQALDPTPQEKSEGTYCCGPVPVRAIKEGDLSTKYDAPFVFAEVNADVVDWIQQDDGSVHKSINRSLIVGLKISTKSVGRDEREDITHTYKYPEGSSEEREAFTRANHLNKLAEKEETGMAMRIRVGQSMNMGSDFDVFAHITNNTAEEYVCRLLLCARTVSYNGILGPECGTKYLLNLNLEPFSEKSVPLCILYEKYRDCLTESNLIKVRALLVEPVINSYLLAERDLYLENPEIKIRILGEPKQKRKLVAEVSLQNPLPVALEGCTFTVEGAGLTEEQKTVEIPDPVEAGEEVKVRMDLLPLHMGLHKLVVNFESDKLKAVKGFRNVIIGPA

[4] = target: T3, recombinant human tissue …; experiment: time-dependent inactivation of tTG; residual activity by glutamate dehydrogenase-coupled assay at 340 nm; double-reciprocal plot

B1: recombinant human tissue transglutaminase (protein)
chain: T3 sequence (looked up)
KM [1]: 400 µM
kcat [1]: 0.667 s⁻¹
kcat/KM [1]: 97000 min^-1M^-1
KM [2]: 300 µM
kcat [2]: 0.467 s⁻¹

B2: Pro-Gln-Pro-Aci-Leu-Pro-Tyr (peptide)
peptide: PQP[Aci]LPY
notes: Free termini; also called PQPAciLPY; PQP-X-LPY with X = Aci
Ki [3]: 780 µM

B3: Ac-Pro-Gln-Pro-Don-Leu-Pro-Phe-NH2 (peptide)
peptide: Ac-PQP[DON]LPF-NH2
SMILES: CC(=O)N1CCC[C@H]1C(=O)N[C@@H](CCC(N)=O)C(=O)N1CCC[C@H]1C(=O)N[C@@H](CCC(=O)C=[N+]=[N-])C(=O)N[C@@H](CC(C)C)C(=O)N1CCC[C@H]1C(=O)N[C@@H](Cc1ccccc1)C(N)=O
notes: here X = DON; also called Ac-PQP-X-LPF-NH2 with X = DON; compound 41
Ki [4]: 0.07 µM
